This note sets out measurements from PMC8136768.

The data set concerns the target CEBPβ bZIP DNA-binding domain (pXC1599) (Homo sapiens, UniProt P17676 269-344). Briefly: X-ray crystallography.

Chain of CEBPβ bZIP DNA-binding domain (pXC1599) (P17676 269-344): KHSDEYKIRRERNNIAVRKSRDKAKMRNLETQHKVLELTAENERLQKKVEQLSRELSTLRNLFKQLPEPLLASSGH

B1: Crystal 16-mer, T:G mismatch (dsDNA)
DNA 1: AGGATTGTGCAATATA
DNA 2: ATATTGCGCAATCCTT
On to B1, for which the binding result was “binds”.
